Test results published in patent US20210324351, “STRUCTURE OF THE HUMAN CGAS-DNA COMPLEX AND USES THEREOF” (Presodent and Fellows of Harvard College, published 2021).

Key:
[1] = molecular target: T1, hcGAS K187N/L195R (hcGAS*) (Homo sapiens, UniProt Q8N884 SEQ:1-366); assay: EMSA; gradient dialysis to 50 mM KCl, 4 C; stable low-MW complex restored, oligomers unaffected; settings: tags: untagged (6xHis-SUMO2 removed with SENP2); chain copies: 2 (2:2 complex with DNA, stated)
T1 chain: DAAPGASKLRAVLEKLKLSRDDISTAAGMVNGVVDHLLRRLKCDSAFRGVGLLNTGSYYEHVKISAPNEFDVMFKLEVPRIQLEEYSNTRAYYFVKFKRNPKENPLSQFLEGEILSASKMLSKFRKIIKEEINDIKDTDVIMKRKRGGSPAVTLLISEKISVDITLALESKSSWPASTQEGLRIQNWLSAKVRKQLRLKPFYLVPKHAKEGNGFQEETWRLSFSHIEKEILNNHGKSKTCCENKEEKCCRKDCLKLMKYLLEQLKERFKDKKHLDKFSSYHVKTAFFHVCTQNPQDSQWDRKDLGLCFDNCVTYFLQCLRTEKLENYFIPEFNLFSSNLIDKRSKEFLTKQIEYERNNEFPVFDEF
Description: (§1) cGAS-DNA complexes were stably assembled using a method adapted from a nucleosome assembly gradient dialysis protocol (Lee and Narlikar (2001) Current protocols in molecular biology Chapter 21, Unit 21.26), and complex formation was measured by electrophoretic mobility shift analysis. Briefly, a concentration gradient of recombinant protein (0.2, 0.4, 2, 10 μM) was incubated with 45 bp dsDNA (2 μM) in a high-salt buffer containing 20 mM HEPES-NaOH pH 7.8, […], 1 mM DTT at 4° C. for 20 min. The reconstitution mixture was then transferred into 8-10 kDa molecular weight cut-off dialysis tubing (Spectrum Labs), and placed into a beaker of the high-salt buffer. The KCl concentration was reduced gradually by slowly replacing high-salt buffer with low-salt buffer (20 mM HEPES-KOH pH 7.5, 50 mM KCl, 1 mM DTT) with a peristaltic pump (Bio-Rad) at a rate of […] for 48 hr at 4° C. After gradient dialysis, reactions were supplemented to 5% glycerol, and subsequently separated on a 2% agarose gel in 0.5×TBE buffer at 4° C. […] Alternatively, where indicated in FIGS. 8A and 8C, cGAS-DNA complexes were assembled by incubating directly in reaction buffer containing 20 mM HEPES-NaOH pH 7.8, […], 1 mM DTT at 4° C. for 20 min and analyzed by electrophoretic mobility shift analysis as indicated above. […]

[2] = molecular target: mcGAS catalytic domain WT (UniProt Q8C6L5 SEQ:1-361); assay: EMSA; gradient dialysis to 50 mM KCl, 4 C; minimal complex plus higher-order oligomers; settings: tags: untagged (6xHis-SUMO2 removed with SENP2)
Description: as §1

[3] = molecular target: mcGAS humanized K187/L195 (UniProt Q8C6L5 SEQ:1-361, N172K,R180L); assay: EMSA; gradient dialysis to 50 mM KCl, 4 C; low-MW complex ablated, higher-order oligomers retained; settings: tags: untagged (6xHis-SUMO2 removed with SENP2)
Description: as §1

[4] = molecular target: hcGAS catalytic domain WT (Homo sapiens, UniProt Q8N884 SEQ:1-366); assay: EMSA; gradient dialysis to 50 mM KCl, 4 C; preferentially higher-order oligomers; settings: tags: untagged (6xHis-SUMO2 removed with SENP2)
Description: as §1

Measured: binding result

Chain of mcGAS humanized K187/L195 (Q8C6L5 147-507 N172K/R180L): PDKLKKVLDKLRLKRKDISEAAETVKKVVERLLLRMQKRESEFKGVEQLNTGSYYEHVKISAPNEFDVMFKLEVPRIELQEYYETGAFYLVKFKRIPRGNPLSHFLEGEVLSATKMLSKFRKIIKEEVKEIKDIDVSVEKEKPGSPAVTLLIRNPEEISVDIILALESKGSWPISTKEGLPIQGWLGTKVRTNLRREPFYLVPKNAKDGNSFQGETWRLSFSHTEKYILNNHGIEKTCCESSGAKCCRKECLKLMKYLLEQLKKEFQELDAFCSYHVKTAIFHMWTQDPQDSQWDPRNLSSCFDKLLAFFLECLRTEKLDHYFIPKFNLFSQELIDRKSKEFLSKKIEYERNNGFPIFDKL
Chain of mcGAS catalytic domain WT (Q8C6L5 147-507): as the sequence (Q8C6L5 147-507 N172K/R180L) above, with K26N, L34R counted along it

B1: 45 bp interferon stimulatory DNA (dsDNA)
DNA 1: TACAGATCTACTAGTGATCTATGACTGATCTGTACATGATCTACA
DNA 2: TGTAGATCATGTACAGATCAGTCATAGATCACTAGTAGATCTGTA
binds: [1] | [2] | [3] | [4]
